test system: Escherichia coli TOP10; experiment: shrunken log2 fold change of peptide-encoding DNA abundance (4.5 h post-induction vs induction); higher = less antimicrobial activity (less host growth inhibition); conditions: time post-induction: 4.5 h; library: site-saturation at positions 5, 18, 19, 20
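Also: peptides expressed intracellularly from a pBAD plasmid library in pooled LB shake-flask culture, induced with 0.3% L-arabinose, DNA abundance read by NGS, three biological replicates, DESeq2 with apeglm shrinkage.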

Q: For RRIRDRPPRLPRPRPRPQYGPRP, which “shrunken log2 fold change” value is on record?
A: -0.414

Q: How did the “shrunken log2 fold change” value turn out when RRIRARPPRLPRPRPRPNCYPRP was run?
A: -0.211

Q: How did the “shrunken log2 fold change” value turn out when RRIRKRPPRLPRPRPRPWNCPRP was run?
A: 0.0387

Q: With RRIRGRPPRLPRPRPRPEHNPRP as the sequence, how does the “shrunken log2 fold change” value read?
A: 0.327

Q: How did the “shrunken log2 fold change” value turn out when RRIRGRPPRLPRPRPRPYVSPRP was run?
A: -0.203

Q: Which “shrunken log2 fold change” value does the source give for RRIRSRPPRLPRPRPRPAPDPRP here?
A: 0.369

Q: With RRIRVRPPRLPRPRPRPCMFPRP as the sequence, how does the “shrunken log2 fold change” value read?
A: -0.559

Q: How did the “shrunken log2 fold change” value turn out when RRIRNRPPRLPRPRPRPNIVPRP was run?
A: -0.115

Q: Which “shrunken log2 fold change” value does the source give for RRIRQRPPRLPRPRPRPGCDPRP here?
A: -0.229

Q: With RRIRCRPPRLPRPRPRPGCNPRP as the sequence, how does the “shrunken log2 fold change” value read?
A: -0.425

Q: Which “shrunken log2 fold change” value does the source give for RRIRVRPPRLPRPRPRPTEPPRP here?
A: 0.128

Q: For RRIRQRPPRLPRPRPRPGEHPRP, which “shrunken log2 fold change” value is on record?
A: -0.0241

Q: For RRIRERPPRLPRPRPRPRYHPRP, which “shrunken log2 fold change” value is on record?
A: -0.0105

Q: RRIRDRPPRLPRPRPRPNICPRP was tested. Which “shrunken log2 fold change” value did it give?
A: 0.153

Q: With RRIRRRPPRLPRPRPRPDEFPRP as the sequence, how does the “shrunken log2 fold change” value read?
A: 0.138

Q: Which “shrunken log2 fold change” value does the source give for RRIRDRPPRLPRPRPRPWRQPRP here?
A: -0.114

Q: How did the “shrunken log2 fold change” value turn out when RRIRIRPPRLPRPRPRPMAEPRP was run?
A: -0.0152

Q: RRIRTRPPRLPRPRPRPISQPRP was tested. Which “shrunken log2 fold change” value did it give?
A: -0.0474

Q: RRIRWRPPRLPRPRPRPWFGPRP was tested. Which “shrunken log2 fold change” value did it give?
A: -0.0254

Q: For RRIRNRPPRLPRPRPRPYWQPRP, which “shrunken log2 fold change” value is on record?
A: -0.215

Q: Which “shrunken log2 fold change” value does the source give for RRIRMRPPRLPRPRPRPPEGPRP here?
A: 0.338

Q: How did the “shrunken log2 fold change” value turn out when RRIRTRPPRLPRPRPRPTRSPRP was run?
A: -0.111

Q: How did the “shrunken log2 fold change” value turn out when RRIRIRPPRLPRPRPRPKARPRP was run?
A: -0.0685

Q: With RRIRQRPPRLPRPRPRPIMYPRP as the sequence, how does the “shrunken log2 fold change” value read?
A: -0.0857

Q: With RRIRDRPPRLPRPRPRPCPHPRP as the sequence, how does the “shrunken log2 fold change” value read?
A: -0.228

Q: How did the “shrunken log2 fold change” value turn out when RRIRWRPPRLPRPRPRPLYHPRP was run?
A: -0.307

Q: How did the “shrunken log2 fold change” value turn out when RRIRSRPPRLPRPRPRPGTNPRP was run?
A: -0.188

Q: For RRIRRRPPRLPRPRPRPCTPPRP, which “shrunken log2 fold change” value is on record?
A: -0.0236

Q: How did the “shrunken log2 fold change” value turn out when RRIRARPPRLPRPRPRPTCLPRP was run?
A: 0.0548

Q: With RRIRARPPRLPRPRPRPWFMPRP as the sequence, how does the “shrunken log2 fold change” value read?
A: -0.108

Q: With RRIRFRPPRLPRPRPRPILCPRP as the sequence, how does the “shrunken log2 fold change” value read?
A: -0.192

Q: With RRIRLRPPRLPRPRPRPLGGPRP as the sequence, how does the “shrunken log2 fold change” value read?
A: 0.157

Q: Which “shrunken log2 fold change” value does the source give for RRIRWRPPRLPRPRPRPLTVPRP here?
A: -0.0954

Q: For RRIRSRPPRLPRPRPRPLPIPRP, which “shrunken log2 fold change” value is on record?
A: 0.0503

Q: Which “shrunken log2 fold change” value does the source give for RRIRTRPPRLPRPRPRPAAMPRP here?
A: 0.154

Q: For RRIRSRPPRLPRPRPRPDPRPRP, which “shrunken log2 fold change” value is on record?
A: 0.215

Q: Which “shrunken log2 fold change” value does the source give for RRIRMRPPRLPRPRPRPQVTPRP here?
A: -0.116

Q: For RRIRTRPPRLPRPRPRPDAHPRP, which “shrunken log2 fold change” value is on record?
A: 0.128

Q: How did the “shrunken log2 fold change” value turn out when RRIRTRPPRLPRPRPRPLDAPRP was run?
A: -0.00457

Q: Which “shrunken log2 fold change” value does the source give for RRIRIRPPRLPRPRPRPDQDPRP here?
A: -0.162

Q: For RRIRQRPPRLPRPRPRPCRTPRP, which “shrunken log2 fold change” value is on record?
A: 0.0557

Q: How did the “shrunken log2 fold change” value turn out when RRIRMRPPRLPRPRPRPQNWPRP was run?
A: 0.532

Q: With RRIRYRPPRLPRPRPRPVLPPRP as the sequence, how does the “shrunken log2 fold change” value read?
A: -0.511

Q: How did the “shrunken log2 fold change” value turn out when RRIRWRPPRLPRPRPRPLFLPRP was run?
A: -0.318

Q: Which “shrunken log2 fold change” value does the source give for RRIRLRPPRLPRPRPRPQIDPRP here?
A: 0.0696

Q: For RRIRNRPPRLPRPRPRPMCDPRP, which “shrunken log2 fold change” value is on record?
A: -0.386

Q: RRIRVRPPRLPRPRPRPLMMPRP was tested. Which “shrunken log2 fold change” value did it give?
A: -0.331

Q: How did the “shrunken log2 fold change” value turn out when RRIRPRPPRLPRPRPRPPFYPRP was run?
A: 0.0888

Q: How did the “shrunken log2 fold change” value turn out when RRIRIRPPRLPRPRPRPGKLPRP was run?
A: -0.0215

Q: RRIRRRPPRLPRPRPRPDDHPRP was tested. Which “shrunken log2 fold change” value did it give?
A: -0.276

Q: For RRIRMRPPRLPRPRPRPMGIPRP, which “shrunken log2 fold change” value is on record?
A: -0.0393

Q: RRIRRRPPRLPRPRPRPYVPPRP was tested. Which “shrunken log2 fold change” value did it give?
A: -0.241

Q: For RRIRERPPRLPRPRPRPGCFPRP, which “shrunken log2 fold change” value is on record?
A: 0.199

Q: How did the “shrunken log2 fold change” value turn out when RRIRKRPPRLPRPRPRPIRYPRP was run?
A: -0.118

Q: With RRIRARPPRLPRPRPRPCGRPRP as the sequence, how does the “shrunken log2 fold change” value read?
A: 0.526

Q: Which “shrunken log2 fold change” value does the source give for RRIRIRPPRLPRPRPRPEMQPRP here?
A: 0.128

Q: RRIRFRPPRLPRPRPRPARLPRP was tested. Which “shrunken log2 fold change” value did it give?
A: 0.175

Q: Which “shrunken log2 fold change” value does the source give for RRIRVRPPRLPRPRPRPAHLPRP here?
A: -0.0953

Q: For RRIRERPPRLPRPRPRPHYFPRP, which “shrunken log2 fold change” value is on record?
A: -0.658

Q: How did the “shrunken log2 fold change” value turn out when RRIRIRPPRLPRPRPRPEVKPRP was run?
A: 0.135

Q: RRIRWRPPRLPRPRPRPVHAPRP was tested. Which “shrunken log2 fold change” value did it give?
A: 0.109

Q: Which “shrunken log2 fold change” value does the source give for RRIRVRPPRLPRPRPRPKCEPRP here?
A: 0.0936

Q: With RRIRQRPPRLPRPRPRPHPIPRP as the sequence, how does the “shrunken log2 fold change” value read?
A: -0.133

Q: With RRIRYRPPRLPRPRPRPSPNPRP as the sequence, how does the “shrunken log2 fold change” value read?
A: -1.34

Q: With RRIRLRPPRLPRPRPRPIRLPRP as the sequence, how does the “shrunken log2 fold change” value read?
A: -0.3

Q: With RRIRLRPPRLPRPRPRPVKIPRP as the sequence, how does the “shrunken log2 fold change” value read?
A: -0.169

Q: Which “shrunken log2 fold change” value does the source give for RRIRFRPPRLPRPRPRPVLQPRP here?
A: 0.21

Q: Which “shrunken log2 fold change” value does the source give for RRIRARPPRLPRPRPRPLYTPRP here?
A: -0.0964

Q: RRIRDRPPRLPRPRPRPSEVPRP was tested. Which “shrunken log2 fold change” value did it give?
A: 0.561

Q: With RRIRMRPPRLPRPRPRPCLYPRP as the sequence, how does the “shrunken log2 fold change” value read?
A: -0.331

Q: Which “shrunken log2 fold change” value does the source give for RRIRMRPPRLPRPRPRPICVPRP here?
A: 0.196

Q: With RRIRNRPPRLPRPRPRPLFIPRP as the sequence, how does the “shrunken log2 fold change” value read?
A: -1.03

Q: How did the “shrunken log2 fold change” value turn out when RRIRERPPRLPRPRPRPRNYPRP was run?
A: -0.491

Q: Which “shrunken log2 fold change” value does the source give for RRIRLRPPRLPRPRPRPDNHPRP here?
A: -0.519

Q: For RRIRMRPPRLPRPRPRPFKVPRP, which “shrunken log2 fold change” value is on record?
A: -0.111

Q: How did the “shrunken log2 fold change” value turn out when RRIRDRPPRLPRPRPRPRAQPRP was run?
A: 0.457

Q: How did the “shrunken log2 fold change” value turn out when RRIRQRPPRLPRPRPRPISYPRP was run?
A: 0.0146

Q: Which “shrunken log2 fold change” value does the source give for RRIRVRPPRLPRPRPRPSTMPRP here?
A: -0.213

Q: For RRIRERPPRLPRPRPRPNAGPRP, which “shrunken log2 fold change” value is on record?
A: 0.0608

Q: With RRIRYRPPRLPRPRPRPTLMPRP as the sequence, how does the “shrunken log2 fold change” value read?
A: -0.301

Q: Which “shrunken log2 fold change” value does the source give for RRIRERPPRLPRPRPRPFIDPRP here?
A: -0.288

Q: Which “shrunken log2 fold change” value does the source give for RRIRFRPPRLPRPRPRPITMPRP here?
A: -0.503

Q: RRIRPRPPRLPRPRPRPCSEPRP was tested. Which “shrunken log2 fold change” value did it give?
A: -0.00276

Q: Which “shrunken log2 fold change” value does the source give for RRIRLRPPRLPRPRPRPATCPRP here?
A: -0.597

Q: Which “shrunken log2 fold change” value does the source give for RRIRCRPPRLPRPRPRPMTNPRP here?
A: -0.434

Q: How did the “shrunken log2 fold change” value turn out when RRIRQRPPRLPRPRPRPNGSPRP was run?
A: -0.00154

Q: How did the “shrunken log2 fold change” value turn out when RRIRNRPPRLPRPRPRPCHHPRP was run?
A: -1.21

Q: How did the “shrunken log2 fold change” value turn out when RRIRNRPPRLPRPRPRPHFIPRP was run?
A: 0.121

Q: With RRIRWRPPRLPRPRPRPNSHPRP as the sequence, how does the “shrunken log2 fold change” value read?
A: -0.16

Q: For RRIRTRPPRLPRPRPRPWHQPRP, which “shrunken log2 fold change” value is on record?
A: -0.0236

Q: How did the “shrunken log2 fold change” value turn out when RRIRARPPRLPRPRPRPERRPRP was run?
A: 0.77

Reference: the supplement of paper PMC9112550, “Optimization of the antimicrobial peptide Bac7 by deep mutational scanning” (BMC Biology, 2022)
